Experimental findings from US20190300590A1 (PROTAGONIST THERAPEUTICS, published 2019) are described below.

*1 amine or outer side, *2 acyl side, *3 side chain or, on linkers, in order; H or OH if unused. Bridges are numbered along the chain shown (N, C = ends). Primed or numbered codes have the meaning given here. [ ]: non-standard residue; d: D form. Phe(4-OMe)(3) = O-methyl-L-tyrosine (4-methoxy-L-phenylalanine), COc1ccc(C[C@H](N[*:1])C(=O)[*:2])cc1; Phe(4-Oallyl) = 4-allyloxy-phenylalanine (O-allyl-tyrosine), C=CCOc1ccc(C[C@H](N[*:1])C(=O)[*:2])cc1; Phe(4-OMe) = 4-methoxy-L-phenylalanine (O-methyl-L-tyrosine), COc1ccc(C[C@H](N[*:1])C(=O)[*:2])cc1; Phe(4-OMe)(5) = O-methyl-L-tyrosine (4-methoxy-Phe), COc1ccc(C[C@H](N[*:1])C(=O)[*:2])cc1; Phe(4-OMe)″ = 4-methoxyphenylalanine, COc1ccc(C[C@H](N[*:1])C(=O)[*:2])cc1; Phe(4-N3) = [N-]=[N+]=Nc1ccc(C[C@H](N)C(=O)O)cc1; Tyr(Ph) = N[C@@H](Cc1ccc(Oc2ccccc2)cc1)C(=O)O; Phe(2,4-Me2) = Cc1ccc(C[C@H](N)C(=O)O)c(C)c1; Phe(4-NH2) = Nc1ccc(C[C@H](N)C(=O)O)cc1; Phe(4-Me) = Cc1ccc(C[C@H](N)C(=O)O)cc1; 1Nal = N[C@@H](Cc1cccc2ccccc12)C(=O)O; 2Nal = N[C@@H](Cc1ccc2ccccc2c1)C(=O)O; AEF = NCCOc1ccc(C[C@H](N)C(=O)O)cc1; αMeF = C[C@](N)(Cc1ccccc1)C(=O)O; 4Pal = N[C@@H](Cc1ccncc1)C(=O)O; αMeK = C[C@](N)(CCCCN)C(=O)O; Abu = CC[C@H](N)C(=O)O

First the molecules themselves.
B1: Ac-Cyclo-[[Abu]-QTWQC]-[Phe(4-phenoxy)]-W-[α-MeLys]-ENG-NH2 (peptide)
peptide: Ac-[Abu]QTWQC[Tyr(Ph)]W[αMeK]ENG-NH2
modifications: thioether 1-6
B2: Ac-Cyclo-[[Abu]-QTWQC]-[2-Nal]-[2-Nal]-[α-MeLys]-[Lys(Ac)]-NG-NH2 (peptide)
peptide: Ac-[Abu]QTWQC[2Nal][2Nal][αMeK]K(Ac)NG-NH2
modifications: thioether 1-6
B3: Ac-Cyclo-[[Abu]-QTWQC]-[Phe-4-N3]-[2-Nal]-[α-MeLys]-[Lys(Ac)]-NG-NH2 (peptide)
peptide: Ac-[Abu]QTWQC[Phe(4-N3)][2Nal][αMeK]K(Ac)NG-NH2
modifications: thioether 1-6
B4: Ac-Cyclo-[[Abu]-STWQC]-[Phe(4-OMe)]-[2-Nal][α-MeLys]-[Lys(Ac)]-NGE-NH2 (peptide)
peptide: Ac-[Abu]STWQC[Phe(4-OMe)(5)][2Nal][αMeK]K(Ac)NGE-NH2
modifications: thioether 1-6
B5: Ac-Cyclo-[[Abu]-QTWQC]-[Phe(4-NH2)]-W-[α-MeLys]-ENG-NH2 (peptide)
peptide: Ac-[Abu]QTWQC[Phe(4-NH2)]W[αMeK]ENG-NH2
modifications: thioether 1-6
B6: Ac-Cyclo-[[Abu]-QTWQC]-[Phe(4-OMe)]-[1-Nal][α-MeLys]-[Lys(Ac)]-NG-NH2 (peptide)
peptide: Ac-[Abu]QTWQC[Phe(4-OMe)][1Nal][αMeK]K(Ac)NG-NH2
modifications: thioether 1-6
B7: Ac-Cyclo-[[Abu]-QTWQC]-[Phe(4-OMe)]-[1-Nal]-[α-MeLys]-ENG-NH2 (peptide)
peptide: Ac-[Abu]QTWQC[Phe(4-OMe)][1Nal][αMeK]ENG-NH2
modifications: thioether 1-6
B8: Ac-Cyclo-[[Abu]-QTWQC]-[Phe(4-OMe)]-W-[α-MeLys]-ENG-NH2 (peptide)
peptide: Ac-[Abu]QTWQC[Phe(4-OMe)]W[αMeK]ENG-NH2
modifications: thioether 1-6
B9: Ac-Cyclo-[[Abu]-QTWQC]-[Phe(4-OMe)]-[2-Nal]-[α-MeOrn]-ENG-NH2 (peptide)
peptide: XQTWQCFXXENG
modifications: as bracketed in name; thioether cyclo
B10: Ac-Cyclo-[[Abu]-QTWQC-YW-[α-MeOrn]-[Lys(Ac)]-NG-NH2 (peptide)
peptide: XQTWQCYWXKNG
modifications: as bracketed in name; thioether cyclo
B11: Ac-Cyclo-[[Abu]-QT-[α-MePhe]-QC]-[Phe[4-(2-aminoethoxy)]]-[2-Nal]-[α-MeLys]-ENG-NH2 (peptide)
peptide: Ac-[Abu]QT[αMeF]QC[AEF][2Nal][αMeK]ENG-NH2
modifications: thioether 1-6
B12: Ac-Cyclo-[[Abu]-QTWQC]-[4-Pyridylalanine]-[2-Nal][α-MeLys]-[Lys(Ac)]-NG-NH2 (peptide)
peptide: Ac-[Abu]QTWQC[4Pal][2Nal][αMeK]K(Ac)NG-NH2
modifications: thioether 1-6
B13: Ac-Cyclo-[[Abu]-QT-[Phe(2,4-Me2)]-QC]-[Phe[4-(2-aminoethoxy)]]-[2-Nal]-[α-MeLys]-ENG-NH2 (peptide)
peptide: Ac-[Abu]QT[Phe(2,4-Me2)]QC[AEF][2Nal][αMeK]ENG-NH2
modifications: thioether 1-6
B14: Ac-Cyclo-[[Abu]-QTWQC]-[Phe(4-OMe)]-Phe(4-Me)-[α-MeLys]-ENG-NH2 (peptide)
peptide: Ac-[Abu]QTWQC[Phe(4-OMe)″][Phe(4-Me)][αMeK]ENG-NH2
modifications: thioether 1-6
B15: Ac-Cyclo-[[Abu]-QTWQC]-[Phe(4-OMe)]-[Phe(4-Oallyl)]-[α-MeLys]-ENG-NH2 (peptide)
peptide: Ac-[Abu]QTWQC[Phe(4-OMe)(3)][Phe(4-Oallyl)][αMeK]ENG-NH2
modifications: thioether 1-6

In one test the target is Rat IL-23R_huFC (rat). Nature of the test: rat ELISA vs IL-23. For orientation: An ELISA detects its analyte on a solid surface through an enzyme-linked reagent.
What is called IC50 is the concentration needed to halve the response being measured. Low readings indicate greater potency, high ones weaker potency. B1 gave an IC50 of 25 to 100 nM.
With B2, the IC50 lay in the range of 25 to 100 nM.
The same measure, in the same setting: for B3 the value was 25 to 100 nM; for B4, 25 to 100 nM.
Consider B5, for which the IC50 fell in the range of 25 to 100 nM.
On the same count and under the same terms, then B6, with 25 to 100 nM; and B7, with 25 to 100 nM.
Same read-out and setting: for B8 the value was 25 to 100 nM; for B9, 25 to 100 nM; for B10, 25 to 100 nM.

Another test concerns the target T1, IL23R_huFC (human, UniProt Q5VWK5 24-353).
T1 sequence (looked up): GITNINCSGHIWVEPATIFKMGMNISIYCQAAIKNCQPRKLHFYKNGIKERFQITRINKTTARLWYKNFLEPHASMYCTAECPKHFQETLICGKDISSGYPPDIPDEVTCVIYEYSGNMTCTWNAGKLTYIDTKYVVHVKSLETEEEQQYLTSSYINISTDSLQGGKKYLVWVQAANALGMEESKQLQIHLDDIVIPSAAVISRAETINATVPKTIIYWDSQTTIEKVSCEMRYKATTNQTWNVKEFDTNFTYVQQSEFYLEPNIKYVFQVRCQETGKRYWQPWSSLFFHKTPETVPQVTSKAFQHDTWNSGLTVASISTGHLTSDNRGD
Kind of test: human ELISA vs IL-23.
The molecule B2 had an IC50 of 25 to 100 nM.
Still for that read-out and setting: for B4 the value was 25 to 100 nM; for B7, 25 to 100 nM.

The target in the next test is T1, IL23R_huFC. Kind of test: human ELISA vs IL-23. This is another data set of the same source.
As to B11, the IC50 lay within 100 to 1000 nM.
On the same count and under the same terms, for B12 the value was 100 to 1000 nM; for B13, 100 to 1000 nM.
As for B14, the IC50 lay within 100 to 1000 nM.
The same measure, in the same setting: then B15, with 100 to 1000 nM.
